Where two headings read alike, the source gives them in different places.
T1: P2-AA-12HGe-A
T1 chain: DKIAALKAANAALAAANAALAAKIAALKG

T2: P2-AA-12HGe-D
T2 chain: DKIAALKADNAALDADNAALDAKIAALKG

T3: P2-AA-12HGe-E
T3 chain: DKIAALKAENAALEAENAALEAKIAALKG

T4: P2-AA-12HGe-H
T4 chain: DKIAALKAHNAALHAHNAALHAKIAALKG

T5: P2-AA-12HGe-M
T5 chain: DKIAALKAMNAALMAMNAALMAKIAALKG

T6: P2-AA-12HGe-Q
T6 chain: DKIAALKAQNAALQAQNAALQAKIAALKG

T7: P2-AA-12HGe-R
T7 chain: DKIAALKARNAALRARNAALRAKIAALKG

T8: P2-AA-12HGe-S
T8 chain: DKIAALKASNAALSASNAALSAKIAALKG

T9: P2-AA-12HGe-T
T9 chain: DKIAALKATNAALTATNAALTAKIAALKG

T10: P2-AA-12HGe-W
T10 chain: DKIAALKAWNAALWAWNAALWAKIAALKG

T11: P2-AA
T11 chain: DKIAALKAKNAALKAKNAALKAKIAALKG

T12: AP5-AA
T12 chain: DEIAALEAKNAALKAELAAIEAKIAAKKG

T13: AP6-AA
T13 chain: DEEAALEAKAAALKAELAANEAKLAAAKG

T14: AP7-AA
T14 chain: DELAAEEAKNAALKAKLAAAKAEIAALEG

T15: AP8-AA
T15 chain: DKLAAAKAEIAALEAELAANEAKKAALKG

T16: P1-AA
T16 chain: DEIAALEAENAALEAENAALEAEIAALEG

T17: P10-AA
T17 chain: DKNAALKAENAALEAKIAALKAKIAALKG

T18: P11-AA
T18 chain: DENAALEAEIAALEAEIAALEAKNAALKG

T19: P12-AA
T19 chain: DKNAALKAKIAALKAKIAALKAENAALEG

T20: P3-AA
T20 chain: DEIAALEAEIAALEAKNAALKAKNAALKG

T21: P4-AA
T21 chain: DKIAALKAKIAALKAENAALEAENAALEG

T22: P7-AA
T22 chain: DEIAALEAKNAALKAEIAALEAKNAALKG

T23: P8-AA
T23 chain: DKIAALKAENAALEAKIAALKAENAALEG

T24: P9-AA
T24 chain: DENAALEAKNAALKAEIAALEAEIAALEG


Columns and labels:
Assay in all cases: two-hybrid library CCmax;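 also: natural log of median RNA to DNA barcode read ratio; higher means stronger binding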
P2-AA-12HGe-A = biological target: T1, P2-AA-12HGe-A; conditions: mean of both orientations
P2-AA-12HGe-D = biological target: T2, P2-AA-12HGe-D; conditions: mean of both orientations
P2-AA-12HGe-E = biological target: T3, P2-AA-12HGe-E; conditions: mean of both orientations
P2-AA-12HGe-H = biological target: T4, P2-AA-12HGe-H; conditions: mean of both orientations
P2-AA-12HGe-M = biological target: T5, P2-AA-12HGe-M; conditions: mean of both orientations
P2-AA-12HGe-Q = biological target: T6, P2-AA-12HGe-Q; conditions: mean of both orientations
P2-AA-12HGe-R = biological target: T7, P2-AA-12HGe-R; conditions: mean of both orientations
P2-AA-12HGe-S = biological target: T8, P2-AA-12HGe-S
P2-AA-12HGe-T = biological target: T9, P2-AA-12HGe-T; conditions: mean of both orientations
P2-AA-12HGe-W = biological target: T10, P2-AA-12HGe-W; conditions: mean of both orientations
P2-AA = biological target: T11, P2-AA; conditions: mean of both orientations
AP5-AA = biological target: T12, AP5-AA
AP6-AA = biological target: T13, AP6-AA; conditions: mean of both orientations
AP7-AA = biological target: T14, AP7-AA; conditions: mean of both orientations
AP8-AA = biological target: T15, AP8-AA; conditions: mean of both orientations
GCN2_T = biological target: GCN2_T
P1-AA = biological target: T16, P1-AA; conditions: mean of both orientations
P10-AA = biological target: T17, P10-AA; conditions: mean of both orientations
P11-AA = biological target: T18, P11-AA; conditions: mean of both orientations
P12-AA = biological target: T19, P12-AA; conditions: mean of both orientations
P3-AA = biological target: T20, P3-AA; conditions: mean of both orientations
P4-AA = biological target: T21, P4-AA; conditions: mean of both orientations
P7-AA = biological target: T22, P7-AA; conditions: mean of both orientations
P8-AA = biological target: T23, P8-AA; conditions: mean of both orientations
P9-AA = biological target: T24, P9-AA; conditions: mean of both orientations

Row | interaction score (P2-AA-12HGe-A) | interaction score (P2-AA-12HGe-D) | interaction score (P2-AA-12HGe-E) | interaction score (P2-AA-12HGe-H) | interaction score (P2-AA-12HGe-M) | interaction score (P2-AA-12HGe-Q) | interaction score (P2-AA-12HGe-R) | interaction score (P2-AA-12HGe-T) | interaction score (P2-AA-12HGe-W) | interaction score (P2-AA) | interaction score (P2-AA-12HGe-S; mean of both orientations) | Binder | other results
1 | 1.6 | -1.64 | 1.62 | 0.332 | 1.4 | 1.96 | 0.662 | 1.71 | 0.0222 | 1.49 | – | DEIAALEAANAALAAANAALAAEIAALEG [P1-AA-12HGe-A] | interaction score (P2-AA-12HGe-S): -0.384
2 | 1.71 | -1.52 | 2.2 | 0.866 | 1.82 | 2.16 | 1.45 | 1.77 | 0.93 | 1.39 | 1.02 | DEIAALEAMNAALMAMNAALMAEIAALEG [P1-AA-12HGe-M] | –
3 | 0.105 | -1.6 | 2 | -1.82 | -0.622 | 0.16 | -1.54 | -1.51 | -1.45 | -1.14 | -1.37 | DEIAALEAHNAALHAHNAALHAEIAALEG [P1-AA-12HGe-H] | –
4 | – | – | – | – | – | – | – | – | – | -1.24 | – | DEIAALEAKNAALKAELAAIEAKIAAKKG [AP5-AA] | interaction score (AP5-AA): -0.918; interaction score (AP6-AA): 1.53; interaction score (AP7-AA): -1.69; interaction score (AP8-AA): -1.08; interaction score (GCN2_T): -0.794; interaction score (P1-AA): -1.35; interaction score (P10-AA): 1.37; interaction score (P11-AA): -0.907; interaction score (P12-AA): -1.41; interaction score (P3-AA): -1.62; interaction score (P4-AA): -0.912; interaction score (P7-AA): -0.672; interaction score (P8-AA): 2.11; interaction score (P9-AA): -0.644
5 | 1.75 | -1.76 | 1.5 | -1.02 | 0.936 | 1.69 | 0.108 | -0.385 | -0.0819 | -1.08 | -0.243 | DEIAALEAWNAALWAWNAALWAEIAALEG [P1-AA-12HGe-W] | –
6 | 0.941 | -1.6 | 1.26 | -1.51 | -0.103 | 0.761 | -0.61 | -0.824 | -1.56 | -0.397 | -0.683 | DEIAALEATNAALTATNAALTAEIAALEG [P1-AA-12HGe-T] | –
7 | 1.6 | 0.189 | 2.31 | -1.62 | 0.464 | 1.06 | -1.01 | -0.493 | -2.11 | -0.289 | 0.655 | DEIAALEAKNAALKAKNAALKAEIAALEG [P1-AA-12HGe-K] | –
8 | 1.99 | -1.92 | 2.09 | 0.459 | 1.64 | 1.8 | 1.56 | 1.03 | -0.264 | 1.92 | 0.227 | DEIAALEAQNAALQAQNAALQAEIAALEG [P1-AA-12HGe-Q] | –
